Experimental data from patent US7105638B1.

Biological target: Example III polypeptide 2 (modified truncated TRP-LE - Asp-Leu hinge - Glu - salmon calcitonin Asp 15 analog) (salmon) (UniProt P01263)

“S. aureus V-8 protease (from UniProt P0C1U8) (enzyme)” was tested, and the completeness of cleavage at the Glu residue amino terminal to calcitonin was over 95%.
